Where no end group is shown, it is not given here.

In the experiment the target is T1, recombinant human CypA without a GST tag (human, UniProt P62937 1-165).
T1 construct: cyclophilin A (CypA), human, cloned into pGEX-6p-1; source: E. coli BL21 (DE3), purified (GST column, PreScission Protease, Superdex-75); not shown: GST, N-terminal, cleaved
Nature of the experiment: pull-down; recombinant human CypA (200 µg) with 50 µl glutathione-sepharose beads holding GST, GST-1S or GST-1P (200 µg) in 300 µl buffer (50 mM Tris-HCl pH 8.0, 150 mM NaCl, 1% Nonidet P-40, 2 mM EDTA), overnight at 4°C; eluted with GSH; blot for GST and CypA. Conditions: both partners purified.

B1: GST-1S: peptide of the H-I loop of EV71 VP1 (239-GSSKSKYPL-247) fused to GST (peptide)
chain: GSSKSKYPL
modifications: also: fused to GST
notes: H-I loop of the capsid protein VP1 of EV71, residues 239-247; numbers count on: the VP1 protein, not the polypeptide; source: E. coli BL21 (DE3), held on glutathione-sepharose (GST column) beads; not shown: GST, N-terminal, kept
On to B1, for which the binding result is reported as “binds”.

B2: GST-1P: H-I loop of EV71 VP1 with the S243P substitution (239-GSSKPKYPL-247) fused to GST (peptide)
chain: GSSKPKYPL
modifications: also: fused to GST
notes: H-I loop of the capsid protein VP1 of EV71, residues 239-247, with S243P; numbers count on: the VP1 protein, not the polypeptide; source: E. coli BL21 (DE3), held on glutathione-sepharose (GST column) beads; not shown: GST, N-terminal, kept
For B2, the binding result was “binds”.

(Values after PMC4183573, “Cyclophilin A Associates with Enterovirus-71 Virus Capsid and Plays an Essential Role in Viral Infection as an Uncoating Regulator” (PLoS Pathogens, 2014).)
